Assay: soluble on expression in E. coli; label from the status in PepcDB or PDB records

Sequence | soluble on expression in E. coli
MDVQDIIGIALNLATAGSLAAKVLPGCGGKKKGKSVEGESTSSSKGNGAKTPEGKEGSEARTPSAAGSAAPTAPAEGAAPAAGAPAAVAPKPPMAATHDPNYQTLAGLDNNVFGKKDGAAPAAGGGGPAAPADQNAKAATHDPNYQTLAGLNNNVFDKKDGVGAPAAAPVAAGGDKKPIQPNDKNKKAATMDPNYQTLAAVGGDVFGADKKAGGGGGDKKPIQPNNKGQKAATMDPNYQTLAAVGGDVFGADKKKK | soluble
GMDNSEEKKLEALGAFEISRKMLALAQKNEKSNIFLNAGRGNPNWIQTLARLAFVRLVQFGVTESKLTINNGIMAGYINTDGIRERLFAFLDPDKNDEDKFLIDAVNYCHTELGLNRDKVVAEWVNGAVANNYPVPDRCLVNTEKIINYFLQELSYKDANLAEQTDLFPTEGGTAAIVYAFHSLAENHLLKKGDKIAINEPIFTPYLRIPELKDYELVEVDLHSYEKNDWEIEPNEIEKLKDPSIKALIVVNPTNPTSKEFDTNALNAIKQAVEKNPKLMIISDEVYGAFVPNFKSIYSVVPYNTMLVYSYSKLFGCTGWRLGVIALNEKNVFDDNIAHLDKVELRQLHKRYSSVVLDPDKMKFIDRLCADSRSIGLYHTAGLSTPQQIMEALFSMTHLLTSTNGGSDDPYIDIARKLVSERYDQLHDAMQAPKDETDTNTHYYSLIDIYRLAEKIYGKEFRDYLTNNFEQVDFLLKLAEKNGVVLVDGVGFGAKPGELRVSQANLPTEDYALIGKQVLELLKEYYEEFKQNN | soluble
MPPKKVSPGITVILIDAGSNMSVKDTETGKSAFENAINAADWIVSRKLFSKDPELFSVMAYNLDPKEYKTEVGGQTFNGVQCQNEKFTPASFDHLKFITKELQQNTEMIDPNFFKGVLGAVAVLKDQIESYPNPSGITLIVLTNGLNENIRQENFDLLVEAVSESNADLMIIGIDENPEYPASRVAELAETLEGRTYTFQNVAKMLSTFQARQKSERKYNKMWDIAPGIHLPVIFALKSEKSTALLKFKNADSEGNEMVRLEQMHVETDEVAPKDEFKSPVLEEKPKFQKNFKPVENIKTMHGSEILNFLKSIINASGYNFGKSVIMMDPEYLKEKYNDHNFNEGQTGGVLKLIQFTKRANILDSYLLDASAKTVLPALNSPKSGATKATVSLIEAMLSLRVAAICRYTFHAKSHVQLIALLPHQDEETGVFYLRSVKLPFSDDMRTLKFPKFSFDEEDEDLNKPTVAQLSAVDDLIDCMQLQEDEISSLVEGGMSDPKLQMQCHFLKSLVLHPNDTFENHSNRTNQILDQIMAPKRRVEAEHPEIFQKLGREFNLQPIQKTKRERVTVEPEDLQTMISEWTEKKQNMTQPDEVDDGASQKKKKKPNAKKLTRKEEVQMDIMEDGGASRVCSKILEMISNTCKFQPNGAVTEFFTLLVNELNVIRSVFVENSKCDEFNELLKKLKDEEDFEPFAEVLSEEKSCNPIDSSEVSMSEVSVANAAEFWEED | not soluble
MHTIELRNISKVIKNNIVLSNINYKFESGKVYGLKGRNGSGKSMLLRTISGLIRPTSGSVIIDGKELHKEIESPGNIGIVVENAGLYPDFTGFYNLKYLAGIMGQISDDEIINAIKRVGLDLYDKKIVKKYSLGMKQKIVIAQAIMEKPDFLLLDEPTNALDESGVKLLREIVQEEATRGALVIIASHNQEDIELLCDKVIIMADGKISDEYVNSREMNLCSEETQ | not soluble
MDTVNDSFSPGSSRPSPATLSREDCWSEEATFTLIQAWGNRYVDLSRGNLRQKHWQEVANAVNDRHYNTGRNVSAAKSQPYRTDVQCKNRIDTLKKKYKVEKARVSESNPGAYISPWPFFSALDDLLRESFPTSSNPDSTDNIPHQRLSLPMSINPVPVAPRSAIPRRPATSPAIIPHAGDDLLGFRGNLNAFAAAAAAAACPASEDDSEGSRSRSSGRSGSNKKRERKIEKKQGYKEVADAIERLGQIYERVEEKKRKEMVELEKQRMRFAKELECHRMQLFTEMQVRLHKLRRTSGSKGPTSSASAGET | soluble
MIEVKPINAEDTYELRHRILRPNQPIEACMFESDLLRGAFHLGGYYGGKLISIASFHQAEHSELQGQKQYQLRGMATLEGYREQKAGSSLIKHAEEILRKRGADLLWCNARTSASGYYKKLGFSEQGEVFDTPPVGPHILMYKRIT | soluble
MSLANRKYFGTDGVRGKVGAYPITPDFALKLGWAAGKVLASQGSKMVLIGKDTRISGYMLESALEAGLAAAGLSAAFTGPMPTPAIAYLTRTFRAEAGIVISASHNPYYDNGIKFFSAKGTKLPDEIEEAIEAMLEQPMDCVESAELGKASRINDAAGRYIEFCKGTFPAHLGLEGYKIVVDCANGATYHIAPNVLRELGAEVIEIGTDPNGLNINEKCGATDVTALQAKVVETKADVGLAYDGDGDRIMMVDHLGNKVDGDQILFIIAREALRSGQLKGGVVGTLMSNMSLEIALKMLGVPFLRANVGDRYVLEKMVENDWTLGGENSGHIIIADKNTTGDGIVASLAVLAAMAQHKLSLNELASAVKLFPQVLINVRFAGGENPLESDAVKSVAAEVEKRLEGKGRILLRKSGTEPLIRVMVECQDAELAQQCAEEIAEAVKKEGHHHHHH | soluble
MSLTALMVGTGRGAKMGILIKNGEVLEAVNDVQTVVFDKTGTLTVGKPQVTDIIGDSKQVLRIAASLEDSSEHPLAAAILAKAKADNISTLPVENFTAIEGKGVAATISGQQGVVGNQKLLGDLTFNKQLQQQETRLQNEAKTVVFVGLDDRIIGLIAIQDAPKPTSKEAIAALRARGLRTVMLTGDNQRVAQAVAQQIGIDEVIADVLPGDKAAQIKQFQHDEGHHHHHH | soluble
MENQDYTVRLTVQASPQEVFKQINRVTAWWTKNLQGDSEKLNDVFTVNFPGMHVSTQKLIECIPDKKVTWMVTDSHLTFIQRKTEWTDTTIQFDISRNVKHTEVLFTHKGLNPAIECYGDCAKGWDYFIKGSLFKLLTEGTGTPELEHHHHHH | soluble
MGSDKIHHHHHHMNVLITGMNGTVAPVLADVFRSHHYDITAWDRSVVSTTDSAVMEAFIDRVQPDLLLHIGMGPAEFAETLARLSFERNIPFLFTSTASVYSDEQKGPHDPAIVPAATDEYGAYKRTCERLIQAVNPDAYIVRIGWQIGQAAGSNNMIDYLERHAIAGPIPASTQWYPSCAFLEDTAQTLYTIVTTYTPGLYLANGNASHSFFDIVTALNILHGSKWHITEDNSMTRDDRMTDSRVVIRPISEHLSFVH | not soluble
MDLSAVRFDEKGLVPVVVQDARTGEVLTLAYANREALEETLRTRRSTFFSRSRQALWRKGETSGHTQEVVEVLLDCDGDAVVYRVLPQGPACHTGERTCFHRALLEGEKDLGFVVGQVYATIKERLRTLPEGSYVARMHQAGLDRILKKIGEEAGEVILAAKNQNPEELRHEAADLLFHLLLTLAELGLTPEDLAKTLWERHRPRSPYDGSHGN | soluble
MADVFEFELEGHESQASPQRHAYHYDNCTEIMEDDHMYSNVADGQISAPPPSSSYMEDPMMESIQLCASAINPPNVRVGPEDFQLLKVLGKGGYGKVFQVRKTTGSDNGQIFAMKVLQKATIVRNQKDTAHTKAERNILEAVKSPFICDLLYAFQTGGKLYLILEYLSGGELFMHLEREGMFMENVAKFYLSEIVVSLEHLHQQGIIYRDLKPENILLDAYGHVKLTDFGLCKEEIEGDQKTHTFCGTIEYMAPEILMRCGHGKAVDWWSLGALMFDMLTGGPPFTAENRRKTIDKILKGRLTLPAYLSNEARDLIKKLLKRHVDTRLGAGLSDAEEIKSHAFFKTTDWNLVYARQLEAPFKPNIENDEDTSLFDARFTKMTPVDSPCETNFSLNGDNPFVGFTYVAPSVLEMMNKGGHGGISVAHLASSMSRAGAAKSPRKPGDPETASILHGGHSNLFGHGPNSEAPQAFGYGIGSQMTTTTAGGAGIQQPYQSFSGGYPEDDAMDTSTPRASESRETTTGNGSTTTTRPSNVGSSASTPIPLPKRVIKLPHTHTSTQNAQYSFMLLLLNVSLFFHFF | not soluble
MFKIGSVLKQIRQELNYHQIDLYSGIMSKSVYIKVEADSRPISVEELSKFSERLGVNFFEILNRAGMNTKSVNETGKEKLLISKIFTNPDLFDKNFQRIEPKRLTSLQYFSIYLGYISIAHHYNIEVPTFNKTITSDLKHLYDKRTTFFGIDCEIVSNLLNVLPYEEVSSIIKPMYPIVDSFGKDYDLTIQTVLKNALTISIMNRNLKEAQYYINQFEHLKTIKNISINGYYDLEINYLKQIYQFLTDKNIDSYLNAVNIINIFKIIGKEDIHRSLVEELTKISAKEKFTPPKEVTMYYENYVAIENNPIPEIKEQS | soluble
MGSDKIHHHHHHMKIAQVAPLWERVPPPSYGGIELVVSHLTNELVRRGHEVTLFASGDSQTLAHLETVCPRALRLDKNVQDYAAYETLELSQVYQNATEFDIIHSHLGISALPLANLVKTPTVHTLHGHFTKDNQNVFSHHHQQPYVSISNAQRQIHLNYIKTVYNGIEPKDYPFISQPKEPPYLAFLGRFSPEKGPHQAIAIAKQSGWRLKMAGKVDIVDAKFFEQEILPHIDGQQIEYLGEINHTEKAELLGNAAATLFPINWQEPFGLVMIESMATGTPVIGMNLGSVPEVIDQGKTGFICRTYEEMIQMIAVTLELDRRDCRESVVNKFSVSHMVDGYEAVYQQIIKDRVNLNGYIHTAKIRF | not soluble
MCGRFVLFTTDESLLGHPALRIFHSIHAPKGMPPARYNIAPTTIIPILRVGTTPTEAVIEPARWGLIPAWKREVTLPPLFNARAETVTTKPSFRQAFSTQRCAIPMDGYYEWHNKKPYWITTGAPTWVAGLWDSGAGMLSATMITTDSVAPLDWLHHRMPRFLNNDELAVWLRGSADEASGLLTPGDASAFHTSLADPSVGNIRNDYPELIDAPTDLFSLLEHHHHHH | soluble
SNMEVDVFPDLNAPTVVVMTEATGMAPEEVERLVTFPVETAVNGATDVRRVRSSSTTGFSIVWVEFDWGTDIYRARQIVSEKLAVVGADLPDNVGKPTLGPQSSILGEVMIIGLTADSTSLQDLRTLADWTIRPRLLSIGGVAQVTVLGGDIKEYQILLNPERMKHYGITLAEVRAAVDQMNRNASGGVLYEYGNEYIICGLLSTNDAAALGKTLVKSLDDIPIMLESVAEVRVGNKAPKLGLASERGQSAVLVTITKQPATSTLELTERLDRSLADLQKALPSDVKVSTDIFRQERFIENSISNVRK | not soluble
MSDILKCIGCGAPLQSEDKNKPGFVPEHNMFRDDVICRRCFRLKNYNEVQDVGLESEDFLKLLSGLADKKGIVVNVVDVFDFEGSFINAVKRIVGNKKIILAANKLDLLPKQINKRRVKEWLKRTARKYGLEADDVVLISAEKGWGIDDLLSSIANIRENEDVYIVGTTNVGKSTLINKLIEASVGEKDVVTTSRFPGTTLDMIDIPLDESSFMYDTPGIIQDHQMTHLVSEKELKIIMPKKEIKQRVYQLNEAQTLFFGGLARIDYVSGGKRPLVCFFSNDLNIHRTKTEKANDLWRNQLGDLLTPPGNPQNFDLNELKAVRLETGKEKRDVMISGLGFITIGPGAKVIVRVPKNVDVVLRNSILLEHHHHHH | soluble
AQAALKDGTYSVDYTVLQGDSDSVSMANDYFDKPATVTVNGGKSTVSLQVNHSKWITGLWVEGNAVSVTSKNTASDTRKVSFPVSTLSSPVNAKIKVDIDDDGLNYHHEYQIQLRFDEGAVKSSGAAV | not soluble

From the DeepSol protein solubility set
